Assay results as given in patent US20260209362A1 (VIB VZW, published 2026).
Numbering of substitutions follows the chain as printed. Blank lines part the entries; values can stand above or below the binder they belong to.

Tests used:
[1] = molecular target: T1, biotinylated recombinant human IL-12Rβ2 (human, UniProt Q99665 24-622, random biotinylated); assay: ELISA, P.E., biotinylated antigen
T1 construct: Recombinant protein produced in-house; also called hIL-12RB2; human IL-12RB2
T1 sequence: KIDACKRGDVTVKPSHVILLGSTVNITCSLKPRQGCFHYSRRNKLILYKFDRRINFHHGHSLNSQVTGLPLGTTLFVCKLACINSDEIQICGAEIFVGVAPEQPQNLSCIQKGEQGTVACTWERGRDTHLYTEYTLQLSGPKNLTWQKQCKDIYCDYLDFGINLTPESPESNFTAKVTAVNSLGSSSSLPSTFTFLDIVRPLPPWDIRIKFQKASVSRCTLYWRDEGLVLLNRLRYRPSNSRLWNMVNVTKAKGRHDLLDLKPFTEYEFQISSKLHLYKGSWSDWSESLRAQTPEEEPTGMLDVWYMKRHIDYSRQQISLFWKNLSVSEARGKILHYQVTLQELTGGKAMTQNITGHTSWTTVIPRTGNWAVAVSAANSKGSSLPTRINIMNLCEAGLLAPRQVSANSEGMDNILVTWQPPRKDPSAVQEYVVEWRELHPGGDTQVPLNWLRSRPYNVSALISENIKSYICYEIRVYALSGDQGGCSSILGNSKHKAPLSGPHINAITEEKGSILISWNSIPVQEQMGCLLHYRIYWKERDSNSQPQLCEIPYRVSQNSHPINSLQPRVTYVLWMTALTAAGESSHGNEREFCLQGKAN

[2] = molecular target: T2, biotinylated recombinant mouse IL-12Rβ2 (mouse, UniProt P97378 24-637, random biotinylated); assay: ELISA, P.E., biotinylated antigen
T2 construct: Recombinant protein produced in-house; also called mIL-12RB2; mouse IL-12RB2
T2 sequence: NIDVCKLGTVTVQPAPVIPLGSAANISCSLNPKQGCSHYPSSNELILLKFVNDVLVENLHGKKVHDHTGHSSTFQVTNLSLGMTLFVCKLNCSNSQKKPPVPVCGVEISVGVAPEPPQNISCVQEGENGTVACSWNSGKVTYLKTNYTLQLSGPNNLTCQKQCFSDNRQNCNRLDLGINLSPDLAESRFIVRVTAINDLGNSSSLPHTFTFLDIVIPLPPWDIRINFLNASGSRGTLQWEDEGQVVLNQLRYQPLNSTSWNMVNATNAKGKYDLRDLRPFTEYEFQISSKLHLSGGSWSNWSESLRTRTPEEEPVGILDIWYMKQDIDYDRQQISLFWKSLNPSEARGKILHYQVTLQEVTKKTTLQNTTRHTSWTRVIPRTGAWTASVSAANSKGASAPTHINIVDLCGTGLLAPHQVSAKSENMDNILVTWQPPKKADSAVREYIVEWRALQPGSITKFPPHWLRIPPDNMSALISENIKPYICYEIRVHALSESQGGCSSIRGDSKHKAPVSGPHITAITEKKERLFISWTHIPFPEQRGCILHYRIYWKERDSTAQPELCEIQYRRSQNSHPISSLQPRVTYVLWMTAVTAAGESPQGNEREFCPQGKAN

[3] = molecular target: T1, biotinylated recombinant human IL-12Rβ2; assay: BLI, P.E., off-rate ranking
[4] = molecular target: T3, mouse IL-12Rβ2 expressed on cells (mouse, UniProt P97378 24-874); assay: flow cytometry, P.E. VHH on HEK293T cells stably expressing mIL-12RB2
T3 construct: HEK293T cells, stably transduced (cDNA NM_008354); also called mIL-12RB2
T3 sequence: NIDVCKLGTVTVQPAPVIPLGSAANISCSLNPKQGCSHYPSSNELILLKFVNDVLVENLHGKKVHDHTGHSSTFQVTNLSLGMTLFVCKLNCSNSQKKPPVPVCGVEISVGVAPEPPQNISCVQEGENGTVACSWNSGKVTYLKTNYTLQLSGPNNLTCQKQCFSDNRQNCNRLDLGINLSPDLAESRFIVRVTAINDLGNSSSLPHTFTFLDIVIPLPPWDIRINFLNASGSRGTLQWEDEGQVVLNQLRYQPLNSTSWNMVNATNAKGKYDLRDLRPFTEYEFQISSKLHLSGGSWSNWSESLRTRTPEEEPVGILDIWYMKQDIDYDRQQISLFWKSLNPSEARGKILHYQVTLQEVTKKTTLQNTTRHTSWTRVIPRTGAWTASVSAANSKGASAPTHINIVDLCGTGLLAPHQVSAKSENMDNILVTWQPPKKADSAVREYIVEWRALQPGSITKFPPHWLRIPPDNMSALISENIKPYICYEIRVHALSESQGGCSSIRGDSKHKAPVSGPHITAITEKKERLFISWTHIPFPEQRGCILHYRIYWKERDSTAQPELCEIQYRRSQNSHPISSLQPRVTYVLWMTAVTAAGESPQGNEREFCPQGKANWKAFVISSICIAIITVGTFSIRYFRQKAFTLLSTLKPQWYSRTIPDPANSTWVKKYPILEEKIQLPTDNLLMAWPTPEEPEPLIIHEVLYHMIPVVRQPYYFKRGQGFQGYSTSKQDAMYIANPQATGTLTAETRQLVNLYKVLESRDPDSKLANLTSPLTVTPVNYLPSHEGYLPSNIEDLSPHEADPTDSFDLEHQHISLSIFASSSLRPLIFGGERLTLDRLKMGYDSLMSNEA

B5: anti-IL-12Rβ2 VHH clone 3CAM11 (VHH, not shown: small tags and cut ends)
VHH: QVQLQESGGGLVQAGGSLRLSCAASGRNLSTYAMGWIRQAPGKEREFVAAISWAGSTTYYADSVKGRFIISRDNAKNTLNLQMNSLKPEDTAVYYCAAPPYVTTTYYATPPSDIRDYHYWGQGTQVTVSS
notes: tested as periplasmic extract; also called 20508
% cells bound [4]: 37.8%
dMFI [4]: 181

B6: anti-IL-12Rβ2 VHH clone 2CAMS29 (VHH, not shown: small tags and cut ends)
VHH: QVQLQESGGGLVQAGGSLRLSCAASGLTSSTYVIGWFRQAPGKEREFVAAIMLSGGTTIYADSLKGRCTIYKDNAKNTVYLQMNSLKLEDTAVYYCASGLIYRYSDFPRSQKYNFWGQGTQVTVSS
notes: tested as periplasmic extract; also called 20534
% cells bound [4]: 14.5%
dMFI [4]: 99

B8: anti-IL-12Rβ2 VHH clone 3CRHS9 (clone ID 20415) (VHH, not shown: small tags and cut ends)
VHH: QVQLQESGGGLVQPGGSLRLSCTASGSIVSIYNMDWYRQAPGNEREWVASITSSGDPYYDGSAKGRFTISRDNAKMTVYLQMNSLKPEDTAVYYCKVPTEKGNYWGQGTQVTVSS
notes: periplasmic extract
ELISA hIL-12RB2/control [1]: 5.08
ELISA mIL-12RB2/control [2]: 1.09
Response [3]: 0.222
koff [3]: 0.0034 s⁻¹

B10: anti-IL-12Rβ2 VHH clone 3CRH27 (clone ID 20379) (VHH, not shown: small tags and cut ends)
VHH: B8 VHH with P14A
notes: periplasmic extract
ELISA hIL-12RB2/control [1]: 10.2
ELISA mIL-12RB2/control [2]: 1.44
Response [3]: 0.138
koff [3]: 0.00264 s⁻¹

B12: anti-IL-12Rβ2 VHH clone 3CRH68 (clone ID 20388) (VHH, not shown: small tags and cut ends)
VHH: B8 VHH with V29L, A40V, E44Q, S53P, A63V, T77M
notes: periplasmic extract
ELISA hIL-12RB2/control [1]: 4.66
ELISA mIL-12RB2/control [2]: 1.03
Response [3]: 0.426
koff [3]: 0.00444 s⁻¹

B14: anti-IL-12Rβ2 VHH clone 3CRH18 (clone ID 20377) (VHH, not shown: small tags and cut ends)
VHH: B8 VHH with S27N, E44Q, K86R
notes: periplasmic extract
ELISA hIL-12RB2/control [1]: 5.84
ELISA mIL-12RB2/control [2]: 1.8
Response [3]: -0.19

B15: anti-IL-12Rβ2 VHH clone 3CRHS3 (clone ID 20414) (VHH, not shown: small tags and cut ends)
VHH: B8 VHH with V29F, E44Q, G61A, A63V, N73S, V97L
notes: periplasmic extract
ELISA hIL-12RB2/control [1]: 6.39
ELISA mIL-12RB2/control [2]: 1.05
Response [3]: 0.327
koff [3]: 0.00225 s⁻¹

B18: anti-IL-12Rβ2 VHH clone 2CRMS29 (VHH, not shown: small tags and cut ends)
VHH: QVQLQESGGGLVQAGGPLRLSCAASGRTFSGSAMGWFRQAPGKEREFVAAITWVGGFTYYADSVKGRFTISRDNAKNTVYLQMNNLSPEDTAVYSCAAQAYHKSGYYYPPLYDYWGQGTQVTVSS
notes: tested as periplasmic extract; also called 20521
% cells bound [4]: 8.42%
dMFI [4]: 58

B20: anti-IL-12Rβ2 VHH clone 3CAHM40 (VHH, not shown: small tags and cut ends)
VHH: QVQLQESGGGSVQAGGSLRLSCAVSGRTVSDYAMGWFRQAPGKEREFVAAMSSSETTVYPNSMKGRITISRDNAKNAVYLQLNALKPEDTAVYYCSMGPIATFQGLARQNEYHYWGQGTQVTVSS
notes: tested as periplasmic extract
% cells bound [4]: 1.97%
dMFI [4]: -1.8

B22: anti-IL-12Rβ2 VHH clone 3CAM10 (VHH, not shown: small tags and cut ends)
VHH: QVQLQESGGGLVQAGGSLRLSCAASGRTFSDYPMAWFRQAPGKEREFVAGISNGGTAYYADSVKGRFTISRDNTRNTVYLQMNRLKVEDTAVYYCAAVHLLSNLRGADPHEADYWGQGTQVTVSS
notes: tested as periplasmic extract; also called 20507
% cells bound [4]: 41.7%
dMFI [4]: 212

Now from value to binder:

ELISA hIL-12RB2/control [1]: 6.22
ELISA mIL-12RB2/control [2]: 0.886
Response [3]: 0.496
koff [3]: 0.00524 s⁻¹
B1: anti-IL-12Rβ2 VHH clone 2CRH10 (clone ID 20362) (VHH, not shown: small tags and cut ends)
VHH: QVQLQESGGGLVQAGGSLVLSCAASGSAALIFLMSWYRQAPGKQRELVAEVSRGGSTTYADSVEGRFHISRDNAKNIVDLQMNSLKPEDTAVYYCKADQNYGDSLRSSWGRGTQVTVSS
notes: periplasmic extract

ELISA hIL-12RB2/control [1]: 4.37
ELISA mIL-12RB2/control [2]: 0.606
Response [3]: 0.547
koff [3]: 0.00536 s⁻¹
B2: anti-IL-12Rβ2 VHH clone 2CRH73 (clone ID 20369) (VHH, not shown: small tags and cut ends)
VHH: B1 VHH with V19R, S21T, A23T, G54R, H68T, N100Y
notes: periplasmic extract

ELISA hIL-12RB2/control [1]: 8.64
ELISA mIL-12RB2/control [2]: 0.808
Response [3]: 0.491
koff [3]: 0.00337 s⁻¹
B3: anti-IL-12Rβ2 VHH clone 3CRH5 (clone ID 20373) (VHH, not shown: small tags and cut ends)
VHH: B1 VHH with H68T, R111Q
notes: periplasmic extract

ELISA hIL-12RB2/control [1]: 4.17
ELISA mIL-12RB2/control [2]: 1.06
Response [3]: 0.515
koff [3]: 0.00385 s⁻¹
B4: anti-IL-12Rβ2 VHH clone 3CRHS184 (clone ID 20441) (VHH, not shown: small tags and cut ends)
VHH: B1 VHH with G54Y, H68T, N100Y, V115L
notes: periplasmic extract

% cells bound [4]: 2.83%
dMFI [4]: 7.4
B7: anti-IL-12Rβ2 VHH clone 3CRHM20 (VHH, not shown: small tags and cut ends)
VHH: QVQLQESGGGLVQAGGSLRLSCAASGRTFSKSTMGWFRQTPGKEREFVAAITWTDTEVYANSVKDRFTISRDNAKNTFYLQMHSLKLEDTAVYYCAGDRYGSSRDSVFSSPTNYPYWGQGTQVTVSS
notes: tested as periplasmic extract; also called 21055

ELISA hIL-12RB2/control [1]: 7.85
ELISA mIL-12RB2/control [2]: 1.26
Response [3]: 0.203
koff [3]: 0.00272 s⁻¹
B9: anti-IL-12Rβ2 VHH clone 3CRHS54 (clone ID 20422) (VHH, not shown: small tags and cut ends)
VHH: B8 VHH with K86E, Y94F
notes: periplasmic extract

ELISA hIL-12RB2/control [1]: 3.76
ELISA mIL-12RB2/control [2]: 1.11
Response [3]: 0.204
koff [3]: 0.00296 s⁻¹
B11: anti-IL-12Rβ2 VHH clone 3CRHS55 (clone ID 20423) (VHH, not shown: small tags and cut ends)
VHH: B8 VHH with P14A, R19N, V29I, E44Q, S54N, P57S, K101N
notes: periplasmic extract

ELISA hIL-12RB2/control [1]: 3.36
ELISA mIL-12RB2/control [2]: 0.74
Response [3]: 0.0184
B13: anti-IL-12Rβ2 VHH clone 3CRHS148 (clone ID 20436) (VHH, not shown: small tags and cut ends)
VHH: B8 VHH with T23I, V29F, E44Q, S53P, G61D
notes: periplasmic extract

ELISA hIL-12RB2/control [1]: 5.88
ELISA mIL-12RB2/control [2]: 1.05
Response [3]: 0.209
koff [3]: 0.00322 s⁻¹
B16: anti-IL-12Rβ2 VHH clone 3CRHS100 (clone ID 20428) (VHH, not shown: small tags and cut ends)
VHH: B8 VHH with V29F, E44Q, S53P, G61D
notes: periplasmic extract

% cells bound [4]: 1.7%
dMFI [4]: 3.5
B17: anti-IL-12Rβ2 VHH clone 3CRHM85 (VHH, not shown: small tags and cut ends)
VHH: QVQLQESGGGLVQPGGSLRLSCAASRRTFSKHAMAWFRQAPGKEREFVAVVRWSGIITYYADSVKGRFTISRDDAKNTVYLQMDSLKPEDTAVYYCAAGDYRGNGYYVPGMYDYWGQGTQVTVSS
notes: tested as periplasmic extract; also called 21061

% cells bound [4]: 29%
dMFI [4]: 151
B19: anti-IL-12Rβ2 VHH clone 3CAM36 (VHH, not shown: small tags and cut ends)
VHH: QVQLQESGGGLVQAGESLTLSCTASGRTFSSYGMGWFRQAPGKERDFVAAISRDARYTDYADSVKGRFTISKDNAKNTAYLQMNSLNPEDTAVYFCAAAYTYSGSHYVTARSGDYNYWGQGTQVTVSS
notes: tested as periplasmic extract; also called 20511

% cells bound [4]: 2.2%
dMFI [4]: 4.8
B21: anti-IL-12Rβ2 VHH clone 3CRHM12 (VHH, not shown: small tags and cut ends)
VHH: B20 VHH with M63V, L82M, A101V
notes: tested as periplasmic extract
